Measurements from patent US20030108958A1.

Molecular target: AK155 receptor complex (IL-20R1 and IL-10R2), endogenous on human cell lines (human) (UniProt Q9UHF4)
Assay: cell-based or functional assay

Chain of AK155 receptor complex (IL-20R1 and IL-10R2), endogenous on human cell lines (human) (Q9UHF4 30-553 V259I/L382F limits assumed, chain 1 of 2): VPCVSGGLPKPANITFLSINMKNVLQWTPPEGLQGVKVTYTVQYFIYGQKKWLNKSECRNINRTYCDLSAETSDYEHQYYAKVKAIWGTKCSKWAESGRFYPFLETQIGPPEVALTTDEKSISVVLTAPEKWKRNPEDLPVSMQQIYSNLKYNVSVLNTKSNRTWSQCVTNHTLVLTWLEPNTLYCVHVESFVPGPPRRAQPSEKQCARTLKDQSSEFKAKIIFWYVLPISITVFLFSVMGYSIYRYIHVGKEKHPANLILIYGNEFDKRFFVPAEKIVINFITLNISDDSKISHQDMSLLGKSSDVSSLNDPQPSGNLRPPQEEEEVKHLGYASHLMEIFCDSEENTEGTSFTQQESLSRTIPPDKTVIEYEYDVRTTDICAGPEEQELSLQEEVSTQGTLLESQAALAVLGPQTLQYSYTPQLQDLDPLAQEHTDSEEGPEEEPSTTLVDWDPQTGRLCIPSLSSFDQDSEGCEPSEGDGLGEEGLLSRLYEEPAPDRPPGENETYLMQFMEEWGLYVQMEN
Chain of AK155 receptor complex (IL-20R1 and IL-10R2), endogenous on human cell lines (human) (chain, as listed by the source limits assumed, chain 2 of 2): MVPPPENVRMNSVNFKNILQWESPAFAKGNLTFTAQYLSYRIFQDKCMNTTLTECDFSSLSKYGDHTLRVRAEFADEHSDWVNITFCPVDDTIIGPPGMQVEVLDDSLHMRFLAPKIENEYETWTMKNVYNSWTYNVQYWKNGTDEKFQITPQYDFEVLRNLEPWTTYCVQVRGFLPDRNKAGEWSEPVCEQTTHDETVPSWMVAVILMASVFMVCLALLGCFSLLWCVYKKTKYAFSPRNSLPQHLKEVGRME

IL-8 in supernatant of Colo-205 cells (ELISA), 24 h, with AK155 (without AK155: 552): 670 pg/mL
IL-8 in supernatant of Colo-205 cells (ELISA), 48 h, with AK155 (without AK155: 623): 989 pg/mL
IL-10 in supernatant of Colo-205 cells (ELISA), 24 h, with AK155 (without AK155: 61): 112 pg/mL
IL-10 in supernatant of Colo-205 cells (ELISA), 48 h, with AK155 (without AK155: 60): 94 pg/mL
Substance: AK155 (from UniProt Q9NPH9 22-171) (ligand)
